{"source": "patent US20040171074A1", "about": "“Structures of substrate binding pockets of SCF complexes” (MOUNT SINAI HOSPITAL, priority 2002, published 2004)", "key": {"[1]": {"test_system": "cdc4Δ strain overexpressing SIC1", "experiment": "sensitivity to SIC1 dosage: GAL1-SIC1 overexpression in strains bearing CDC4 alleles", "type": "cell-based, yeast", "conditions": "for gal Sic1T33V: GAL1-SIC1 T33V (partially stabilized Sic1); for gal Sic1T33V / gal Sic1T45A / gal Sic1 wt: galactose, 2 days at 30° C.; for gal Sic1T45A: GAL1-SIC1 T45A; for gal Sic1 wt: GAL1-SIC1 wild type", "protocol": "(§1) Mutational analysis of the CPD binding surface. Mutants were tested in vitro by ability to bind phosphorylated Sic1 and then captured onto GST-Skp1/Cdc4 resin and detected with anti-sic1 antibody. Mutants were tested in vivo by ability to degrade GAL1-SIC1 or various phosphorylation mutants. Sites are as follows: 3=Thr 33, Thr 45, Ser 76; 4=Thr 5, Thr 33, Thr 45, Ser 76; 5=Thr 2, Thr 5, Thr 33, Thr 45, Ser 76; 6=Thr 2, Thr 5, Thr 33, Thr 45, Ser 69, Ser 76; 7=Thr 2, Thr 5, Thr 33, Thr 45, Ser 69, Ser 76, Ser 80. GAL1-SIC1 plasmids were transformed into a cdc4Δ strain containing a copy of CDC4 on a TRP1 ARS CEN plasmid. Strains were incubated for 2 days at 30° C.\n(§2) All mutants on a TRP1 ARS CEN plasmid were transformed into a cdc4Δ strain (MT 1259) containing a wildtype copy of CDC4 on a URA3 ARS CEN plasmid. Cells were plated on either Trp^−Ura^− or 5-FOA medium for 2 days at 30° C. Viable cells on 5-FOA were grown in Trp medium and transformed with either wild type GAL1-SIC1, GAL1-SIC T45A, or GAL1-SIC T33V on a LEU2 ARS CEN pasmid. Cells were then plated on Leu- Trp-plates containing either glucose or galactose and incubated for 2 days at 30° C.\nSince the cell viability assay nay be masking subtle functional roles for the conserved Cdc4 residues, function was assayed in vivo under more stringent conditions in which Sic1 wt or the stabilized mutants, Sic1 (T33V) or Sic1(T45A) are over-expressed under a galactose promoter. This should amplify defects in cdc4 function. Under these conditions, Trp 717, Tyr 548 and the double mutant K404D/R443D are lethal showing that these residues are in fact important for functions\n(§3) Cdc4 functional assays. CDC4 mutant alleles were assessed for complementation of a cdc4A strain in a plasmid shuffle assay (Nash et al., 2001). Sensitivity to SIC1 dosage was determined by transformation with pMT837 (GAL1-SIC1) or pMT767 (GAL1-SIC1^T33V) and plating on glucose medium or galactose medium. For in vitro capture of phospho-Sic1 by Cdc4, 0.5 μg of bacterially-expressed ^HIS6Sic1 was phosphorylated with immobilized Cln2-Cdc28 kinase from baculovirus-infected Sf9 cells and then incubated with 1 μg of immobilized wild type or mutant Cdc4^263-744-GST-Skp1, at 4° C. for 1 hr, washed 4 times and visualized by anti-Sic1 immunoblot. For isoelectric focusing (IEF)-2D gel analyses, an evenly distributed pool of phospho-Sic1 isoforms was generated by combining different time points in a Sic1 phosphorylation reaction. 2.5 μg of the phospho-Sic1 pool was bound to 5 μg of immobilized wild type or mutant Cdc4^1-744-GST-Skp1. Captured isoforms were separated by denaturing IEF-2D gel electrophoresis using pH3-10NL Immobiline gel strips (Amersham) and visualized by anti-Sic1 immunoblot. Alternatively, the pool of phospho-Sic1 isoforms was incubated in solution with a ubiquitination reaction mix containing ATP, ubiquitin, yeast E1, Cdc34 and either wild type or mutant SCF^Cdc4 complex, composed of a 1:1 ratio of bacterial Cdc4-GST-Skp1 and insect cell-produced Cdc53-Rbx1, at 30° C. for 1 h as previously described (Nash et al., 2001)."}, "[2]": {"test_system": "cdc4Δ strain", "experiment": "plasmid shuffle assay: complementation of a cdc4Δ strain by CDC4 alleles", "type": "cell-based, yeast", "conditions": "viability of cdc4Δ strain on 5-FOA, 2 days at 30° C.", "protocol": "as §2, §3"}, "[3]": {"test_system": "phospho-Sic1", "experiment": "P-Sic1 pull down: in vitro capture of phospho-Sic1 on immobilized wild type or mutant Cdc4-GST-Skp1, anti-Sic1 immunoblot", "type": "binding, yeast", "conditions": "Sic1 phosphorylated with Cln2-Cdc28, captured onto GST-Skp1/Cdc4 resin, anti-Sic1 detection", "protocol": "as §1\nBacterially expressed His6-Sic1 was phosphorylated with Cln2-Cdc28 kinase purified from baculovirus infected Sf9 cells as described before (Nature paper). 1 ug of WT or mutant Cdc4-GST-Skp1, immoblized on GSH-Sepharose resin, was incubated with 0.5 ug phospho-Sic1 at 4 C for 1 h and washed 4 times. Captured complexes were resolved on SDS-PAGE and Sic1 visualized by anti-Sic1 Western blotting and ECL. For IEF-2D analysis, several Sic1 phosphorylation reactions were carried out for different time periods to obtain a spectrum of Sic1 that were phosphorylated at different numbers of its nine CDK sites. This pool of phospho-Sic1 (2.5 ug) was incubated with 5 μg of WT or mutant Cdc4-GST-Skp1 as described above. Different phosphorylation states of Sic1 were separated by denaturing isoelectric focusing (IEF)-2D gel electrophoresis and visualized by anti-Sic1 Western blotting and ECL. IEF was performed using pH 3-10NL Immobiline gel strips and IPGphore IEF system (Amersham pharmacia).\nas §3"}}}
{"molecule": "Y548F: mutant cdc4 polypeptide (protein) MGSFPLAEFPLRDIPVPYSYRVSGGIASSGSVTALVTAAGTHRNSSTAKTVETEDGEEDIDEYQRKRAAGSGESTPERSDFKRVKHDNHKTLHPVNLQNTGAASVDNDGLHNLTDISNDAEKLLMSVDDGSAAPSTLSVNMGVASHNVAAPTTVNAATITGSDVSNNVNSATINNPMEEGALPLSPTASSPGTTTPLAKTTKTINNNNNIADLIESKDSIISPEYLSDEIFSAINNNLPHAYFKNLLFRLVANMDRSELSDLGTLIKDNLKRDLITSLPFEISLKIFNYLQFEDIINSLGVSQNWNKIIRKSTSLWKKLLISENFVSPKGFNSLNLKLSQKYPKLSQQDRLRLSFLENIFILKNWYNPKFVPQRTTLRGHMTSVITCLQFEDNYVITGADDKMIRVYDSINKKFLLQLSGHDGGVWALKYAHGGILVSGSTDRTVRVWDIKKGCCTHVFKGHNSTVRCLDIVEYKNIKYIVTGSRDNTLHVWKLPKESSVPDHGEEHDYPLVFHTPEENPYFVGVLRGHMASVRTVSGHGNIVVSGSFDNTLIVWDVAQMKCLYILSGHTDRIYSTIYDHERKRCISASMDTTIRIWDLENIWNNGECSYATNSASPCAKILGAMYTLQGHTALVGLLRLSDKFLVSAAADGSIRGWDANDYSRKFSYHHTNLSAITTFYVSDNILVSGSENQFNIYNLRSGKLVHANILKDADQIWSVNFKGKTLVAAVEKDGQSFLEILDFSKASKINYVSNPVNSSSSSLESISTSLGLTRTTIIP", "values": [{"measurement": "gal Sic1T33V", "setting": "[1]", "result": "dead"}, {"measurement": "gal Sic1T33V", "setting": "[1]; listed as Tyr548", "result": "dosage sensitivity"}, {"measurement": "gal Sic1T45A", "setting": "[1]", "result": "dead"}, {"measurement": "gal Sic1 wt", "setting": "[1]", "result": "alive"}, {"measurement": "viability / sensitivity to increased SIC1 dosage", "setting": "[1]; Sic1 wt or stabilized Sic1(T33V) or Sic1(T45A) over-expressed under a galactose promoter", "result": "lethal"}, {"measurement": "shuffle", "setting": "[2]", "result": "alive"}, {"measurement": "shuffle", "setting": "[2]; listed as Tyr 548", "result": "fractional"}, {"measurement": "shuffle", "setting": "[2]; listed as Tyr548", "result": "did not cause loss of viability"}, {"measurement": "P-Sic1 pull down", "setting": "[3]", "result": "no bind"}, {"measurement": "P-Sic1 pull down", "setting": "[3]; listed as Tyr 548", "result": "compromised"}]}
{"molecule": "R572A: mutant cdc4 polypeptide (protein) MGSFPLAEFPLRDIPVPYSYRVSGGIASSGSVTALVTAAGTHRNSSTAKTVETEDGEEDIDEYQRKRAAGSGESTPERSDFKRVKHDNHKTLHPVNLQNTGAASVDNDGLHNLTDISNDAEKLLMSVDDGSAAPSTLSVNMGVASHNVAAPTTVNAATITGSDVSNNVNSATINNPMEEGALPLSPTASSPGTTTPLAKTTKTINNNNNIADLIESKDSIISPEYLSDEIFSAINNNLPHAYFKNLLFRLVANMDRSELSDLGTLIKDNLKRDLITSLPFEISLKIFNYLQFEDIINSLGVSQNWNKIIRKSTSLWKKLLISENFVSPKGFNSLNLKLSQKYPKLSQQDRLRLSFLENIFILKNWYNPKFVPQRTTLRGHMTSVITCLQFEDNYVITGADDKMIRVYDSINKKFLLQLSGHDGGVWALKYAHGGILVSGSTDRTVRVWDIKKGCCTHVFKGHNSTVRCLDIVEYKNIKYIVTGSRDNTLHVWKLPKESSVPDHGEEHDYPLVFHTPEENPYFVGVLRGHMASVRTVSGHGNIVVSGSYDNTLIVWDVAQMKCLYILSGHTDAIYSTIYDHERKRCISASMDTTIRIWDLENIWNNGECSYATNSASPCAKILGAMYTLQGHTALVGLLRLSDKFLVSAAADGSIRGWDANDYSRKFSYHHTNLSAITTFYVSDNILVSGSENQFNIYNLRSGKLVHANILKDADQIWSVNFKGKTLVAAVEKDGQSFLEILDFSKASKINYVSNPVNSSSSSLESISTSLGLTRTTIIP", "values": [{"measurement": "gal Sic1T33V", "setting": "[1]", "result": "dead"}, {"measurement": "gal Sic1T33V", "setting": "[1]; listed as Arg 572", "result": "same effect"}, {"measurement": "gal Sic1T45A", "setting": "[1]", "result": "dead"}, {"measurement": "gal Sic1 wt", "setting": "[1]", "result": "alive"}, {"measurement": "shuffle", "setting": "[2]", "result": "alive"}, {"measurement": "shuffle", "setting": "[2]; listed as Arg572", "result": "same behavior"}, {"measurement": "P-Sic1 pull down", "setting": "[3]", "result": "no bind"}, {"measurement": "P-Sic1 pull down", "setting": "[3]; listed as Arg572", "result": "inablity to bind"}]}
{"molecule": "T441I/T465I: double mutant cdc4 polypeptide (protein) MGSFPLAEFPLRDIPVPYSYRVSGGIASSGSVTALVTAAGTHRNSSTAKTVETEDGEEDIDEYQRKRAAGSGESTPERSDFKRVKHDNHKTLHPVNLQNTGAASVDNDGLHNLTDISNDAEKLLMSVDDGSAAPSTLSVNMGVASHNVAAPTTVNAATITGSDVSNNVNSATINNPMEEGALPLSPTASSPGTTTPLAKTTKTINNNNNIADLIESKDSIISPEYLSDEIFSAINNNLPHAYFKNLLFRLVANMDRSELSDLGTLIKDNLKRDLITSLPFEISLKIFNYLQFEDIINSLGVSQNWNKIIRKSTSLWKKLLISENFVSPKGFNSLNLKLSQKYPKLSQQDRLRLSFLENIFILKNWYNPKFVPQRTTLRGHMTSVITCLQFEDNYVITGADDKMIRVYDSINKKFLLQLSGHDGGVWALKYAHGGILVSGSIDRTVRVWDIKKGCCTHVFKGHNSIVRCLDIVEYKNIKYIVTGSRDNTLHVWKLPKESSVPDHGEEHDYPLVFHTPEENPYFVGVLRGHMASVRTVSGHGNIVVSGSYDNTLIVWDVAQMKCLYILSGHTDRIYSTIYDHERKRCISASMDTTIRIWDLENIWNNGECSYATNSASPCAKILGAMYTLQGHTALVGLLRLSDKFLVSAAADGSIRGWDANDYSRKFSYHHTNLSAITTFYVSDNILVSGSENQFNIYNLRSGKLVHANILKDADQIWSVNFKGKTLVAAVEKDGQSFLEILDFSKASKINYVSNPVNSSSSSLESISTSLGLTRTTIIP", "values": [{"measurement": "shuffle", "setting": "[2]", "result": "viable"}, {"measurement": "P-Sic1 pull down", "setting": "[3]", "result": "fully competent"}]}
